Source: patent US20150010525A1, “Catalytic Tagging System to Study Macro-Molecular Interactions Using Engineered Ubiquitin Ligase and Ubiquitin-Like Proteins to Facilitate Substrate Identification” (THE REGENTS OF THE UNIVERSITY OF CALIFORNIA, priority 2012, published 2015)
Where a SMILES comes first, the peptide text is derived from it. The star is where a group is joined. Cbz = O=C(OCc1ccccc1)*

Tests used:
proteasome = test: PGAM5(Δ24) ubiquitination in HeLa cells; type: cell-based; details: HA-Ubiquitin and PGAM5(Δ24)-Myc
Protocol: HeLa cells are transiently co-transfected with HA-Ubiquitin, PGAM5(Δ24)-Myc, with or without XIAP or the treatment of MG132. Ubiquitination of PGAM5(Δ24)-Myc are addressed by immunoprecipitating with Myc antibody then blotting with HA antibody.
HeLa cells were transfected with Lipofectamine 2000 (Invitrogen). Cells were lysed either in M-PER mammalian protein extraction buffer (Thermo) or NP40 buffer (50 mM HEPES pH 7.4, 150 mM NaCl, 1% NP40), supplemented with protease inhibitor cocktail (Thermo). 10% SDS-polyacrylamide gel (PAGE) combined with MOPS running buffer was used to separate full length PGAM5 from the truncated form for immuno-blotting analysis. 4-12% SDS-PAGE gels were generally used for all other analysis. Immuno-precipitation with anti-Myc tag antibody (cell signaling) was performed with a standard procedure using manufacture's instructions.

Jurkat and HeLa cells = test: Cytosolic PGAM5(Δ24) immunoblot in apoptotic cells; type: cell-based; details: 1 μM STS, 4 hours
cIAP1 [1] = target: T1, cIAP1 (Homo sapiens, UniProt Q13490); test: In vitro PGAM5 ubiquitination assay with cIAP1; type: biochemical; details: 50 nM UBE1, 200 nM UbcH5b, 700 nM cIAP1, 1.5 μM PGAM5-His6
T1 construct: expressed in transfected cells; host or cells: HEK293
T1 sequence (Q13490 whole entry): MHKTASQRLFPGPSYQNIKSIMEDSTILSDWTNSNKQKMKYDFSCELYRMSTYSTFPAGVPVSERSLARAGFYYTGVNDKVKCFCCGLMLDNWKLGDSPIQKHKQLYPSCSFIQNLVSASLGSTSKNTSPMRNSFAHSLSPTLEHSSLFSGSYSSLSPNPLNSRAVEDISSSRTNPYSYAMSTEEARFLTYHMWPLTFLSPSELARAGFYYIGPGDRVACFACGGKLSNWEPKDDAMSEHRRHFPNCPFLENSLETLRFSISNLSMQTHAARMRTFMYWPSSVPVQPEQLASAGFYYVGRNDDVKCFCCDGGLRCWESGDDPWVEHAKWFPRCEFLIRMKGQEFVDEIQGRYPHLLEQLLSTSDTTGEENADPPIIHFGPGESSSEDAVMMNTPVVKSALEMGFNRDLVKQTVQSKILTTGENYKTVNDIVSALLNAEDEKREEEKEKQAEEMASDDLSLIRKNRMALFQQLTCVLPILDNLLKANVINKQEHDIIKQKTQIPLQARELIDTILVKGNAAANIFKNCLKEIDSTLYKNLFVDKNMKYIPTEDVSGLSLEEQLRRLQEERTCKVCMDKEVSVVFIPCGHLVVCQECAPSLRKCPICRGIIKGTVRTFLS
Excerpt: (§1) FIG. 12 illustrates the identification of the proteolytic form of PGAM5 as an XIAP and cIAP1 substrate in vitro. […] Overall, 15 unique peptides from PGAM5 were recovered and account for 43% of the entire protein sequence. (B) An example of LC-MS/MS spectrum from endogenous PGAM5 N-terminal peptide after subtiligase labeling and positive enrichment. A non-natural amino acid, 2-aminobutyric acid (Abu), is a designed tag showing characteristic labeling by subtiligase. (C) PGAM5 is cleaved into a truncated form in cells. Jurkat cells were transiently transfected with C-terminal Myc tagged full length PGAM5 or PGAM5 (Δ2-24). […] (D) N-terminal amino acid sequence alignment of PGAM5(Δ24) and other known evolutionarily conserved IBM sequences. Reaper, Hid, and Grim are Drosophila proteins that bind DIAP1, the Drosophila IAP. Amino acids are colored according to their chemical properties. (E) XIAP binds PGAM5(Δ24) but not the full length PGAM5. Recombinant GST fused XIAP, PGAM5(FL), and PGAM5(Δ24) were used for in vitro GST pull down experiments. (F) PGAM5(Δ24) binds to XIAP and cIAP1 independent of the RING domain. […] The resins were washed and proteins were eluted and analyzed with SDSPAGE and coomassie blue staining. […] The ubiquitination assay was performed in vitro and PGAM5 is detected with an anti-His antibody. […]

XIAP = XIAP (Homo sapiens, UniProt P98170); test: In vitro PGAM5 ubiquitination assay with XIAP; type: biochemical; details: 50 nM UBE1, 200 nM UbcH5b, 700 nM XIAP, 1.5 μM PGAM5-His6
XIAP, sequence (P98170 whole entry): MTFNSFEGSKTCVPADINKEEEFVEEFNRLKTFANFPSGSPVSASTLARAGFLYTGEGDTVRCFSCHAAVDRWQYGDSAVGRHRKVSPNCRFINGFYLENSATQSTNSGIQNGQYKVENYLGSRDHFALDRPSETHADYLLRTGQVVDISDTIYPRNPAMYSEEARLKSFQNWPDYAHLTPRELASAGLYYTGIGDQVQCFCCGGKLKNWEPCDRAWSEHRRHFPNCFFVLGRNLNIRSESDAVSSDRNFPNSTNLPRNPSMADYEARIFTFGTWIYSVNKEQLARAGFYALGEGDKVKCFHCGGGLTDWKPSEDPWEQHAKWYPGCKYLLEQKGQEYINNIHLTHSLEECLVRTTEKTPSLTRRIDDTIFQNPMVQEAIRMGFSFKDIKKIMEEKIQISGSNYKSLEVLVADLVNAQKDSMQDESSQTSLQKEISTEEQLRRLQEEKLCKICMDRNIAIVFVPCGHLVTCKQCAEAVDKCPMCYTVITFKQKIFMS
Excerpt: as §1

GST-XIAP = target: T2, GST-XIAP (Homo sapiens, UniProt P98170); test: In vitro GST pull down; type: binding; details: recombinant proteins
T2 construct: made in house
T2 sequence (P98170 whole entry): as above
Excerpt: FIG. 12 illustrates the identification of the proteolytic form of PGAM5 as an XIAP and cIAP1 substrate in vitro. […] Overall, 15 unique peptides from PGAM5 were recovered and account for 43% of the entire protein sequence. (B) An example of LC-MS/MS spectrum from endogenous PGAM5 N-terminal peptide after subtiligase labeling and positive enrichment. A non-natural amino acid, 2-aminobutyric acid (Abu), is a designed tag showing characteristic labeling by subtiligase. (C) PGAM5 is cleaved into a truncated form in cells. Jurkat cells were transiently transfected with C-terminal Myc tagged full length PGAM5 or PGAM5 (Δ2-24). […] (D) N-terminal amino acid sequence alignment of PGAM5(Δ24) and other known evolutionarily conserved IBM sequences. Reaper, Hid, and Grim are Drosophila proteins that bind DIAP1, the Drosophila IAP. Amino acids are colored according to their chemical properties. (E) XIAP binds PGAM5(Δ24) but not the full length PGAM5. Recombinant GST fused XIAP, PGAM5(FL), and PGAM5(Δ24) were used for in vitro GST pull down experiments. (F) PGAM5(Δ24) binds to XIAP and cIAP1 independent of the RING domain. […] The resins were washed and proteins were eluted and analyzed with SDSPAGE and coomassie blue staining. […] The ubiquitination assay was performed in vitro and PGAM5 is detected with an anti-His antibody.

cIAP1 [2] = target: T1, cIAP1; test: Co-immunoprecipitation in HEK293 cells; type: cell-based; details: Flag-cIAP1 co-transfection, anti-Myc IP
Protocol: FIG. 13 illustrates functional studies of PGAM5 in cells. (A) PGAM5(Δ24) binds XIAP and cIAP1 in vivo. On the left, HEK293 cells were cotransfected with Flag-cIAP1 and PGAM5(FL)-Myc or PGAM5(Δ24)-Myc. Total cell lysates were analyzed by immune-blotting with anti-Flag and anti-Myc antibodies (bottom two panels). Anti-Myc immune-precipitates (IP) were subjected to immunoblot analysis using anti-Myc and anti-Flag antibodies (top two panels). On the right, PGAM5(Δ24)-Myc was transiently expressed in HEK293 cells. 36 hours after transfection, cells were lysed and subjected for Immuno-precipitation with either anti-Myc antibody or an isotype control antibody (mouse IgG). Proteins in the whole cell lysate (bottom three panels) and proteins that bind to the antibody conjugated sepharose beads (top three panels) were assayed with immunoblotting. An asterisk indicates the position of the immunoglobulin heavy chain. (B) XIAP and cIAP1 stimulate PGAM5(Δ24) ubiquitination in vivo. […] 24 hours after transfection, cell viability was measured by Annexin V staining. […] Error bars represent SEM calculated from triplicate experiments. […] Cell viability is then immediately measured by CellTiter-Glo luminescent assay. […] PGAM5 levels are analyzed with anti-Myc immune-blotting before STS treatment. Error bars represent SEM calculated from triplicate samples. […]

## CC(C)C[C@@H](C=O)NC(=O)[C@H](CC(C)C)NC(=O)[C@H](CC(C)C)NC(=O)OCc1ccccc1 [MG132] (Cbz-Leu-Leu-Leu-aldehyde)
proteasome
  level of ubiquitination of PGAM5(Δ24): increased

## CN[C@@H]1C[C@H]2O[C@@](C)([C@@H]1OC)n1c3ccccc3c3c4c(c5c6ccccc6n2c5c31)C(=O)NC4 [STS, staurosporin]
Jurkat and HeLa cells
  cytosolic level of PGAM5(Δ24): significant increase in PGAM5(Δ24)

B1: PGAM5(Δ24): cleaved form of PGAM5 lacking the first 24 residues, neo-IBM sequence starting with Ala25 (protein, UniProt Q96HS1 25-289, looked up, fragment)
chain: AVAVGKPRAGGDAEPRPAEPPAWAGGARPGPGVWDPNWDRREPLSLINVRKRNVESGEEELASKLDHYKAKATRHIFLIRHSQYHVDGSLEKDRTLTPLGREQAELTGLRLASLGLKFNKIVHSSMTRAIETTDIISRHLPGVCKVSTDLLREGAPIEPDPPVSHWKPEAVQYYEDGARIEAAFRNYIHRADARQEEDSYEIFICHANVIRYIVCRALQFPPEGWLRLSLNNGSITHLVIRPNGRVALRTLGDTGFMPPDKITRS
cIAP1 [1]
  ubiquitination by cIAP1: ubiquitinates
XIAP
  ubiquitination by XIAP: ubiquitinates
GST-XIAP
  binding to XIAP (pull down): pulled down
cIAP1 [2]
  binding to cellular cIAP1: specifically binds
